According to the supplement of paper PMC12042874:
± gives the uncertainty stated by the source.

assay: amyloid nucleation score (Sup35N fusion, yeast selection) (log enrichment); library NNK3; higher = more nucleation; inactive = no reads after selection
Outline: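 Libraries of peptides of 20 random codons fused to Sup35N were expressed in psi-negative yeast and induced 24 hours with 100 μM copper sulfate. Selection was 7 days at 30°C on medium lacking adenine and uracil, and plasmid inserts were Illumina-sequenced before and after selection. Nucleation score is the DiMSum log enrichment of output over input reads, centred on the mode score of non-aggregating sequences, and sequences with under 100 input reads were left out.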

| Substance | amyloid nucleation score |
| --- | --- |
| YGSDGHHLA | inactive |
| ICMSMNMSADPGMPAIMFNY | inactive |
| GVWRLSVYT | inactive |
| WFGLIFFLICLYTPQLSLKL | inactive |
| AYLYNFLWDTGSVIWVVGHL | inactive |
| YLNVVWYGALTWSDARFRNL | inactive |
| AMDRTNNIEDEQWIMNKYWV | inactive |
| NMVDCGISLV | inactive |
| VADRVSSK | inactive |
| GEKIDRVM | inactive |
| IINIRVIVSSLFPFLSSEFS | inactive |
| LLDLDCYASLVSTTLEHMSG | inactive |
| SFRFVSLVLFAVNDNYGRCW | 1.61 ± 0.13 |
| TSVNVWFPFLGVREGFGCSP | 1.37 ± 0.15 |
| ILKGL | inactive |
| PHIGYCMW | inactive |
| IGNCFMTMGRLVSRQDSVPM | -0.427 ± 1 |
| VFLPGRSIKWFLMAEKLRNH | inactive |
| DRSLMRS | inactive |
| SVGEKGN | inactive |
| YSIVRGWMDARDLHMLHLEI | inactive |
| RCPTPTWSINGPC | inactive |
| DMYVLLMRTQSLGMPLIGIS | inactive |

| Substance | amyloid nucleation score |
| --- | --- |
| VTGNDQ | inactive |
| KVFPFEVEVLFFHGGDMSCG | -0.121 ± 0.36 |
| CFELDVRDEA | inactive |
| GLYPQWLGDGRWLSSGLATL | 0.138 ± 0.33 |
| LLYSLWCEMMYPSKGARM | inactive |
| NCMEINVYFTFVEMQLAELD | 2.69 ± 0.055 |
| VSYTRTIPLKGSNLMLIWF | inactive |
| NLLKSTYSVIASCASLLDLV | inactive |
| MGLLLFLSANDV | inactive |
| WKAFNVTPFRGWVNVAVLA | inactive |
| ALCRASEVIWWARVSGGCVL | inactive |
| IDDEIANSSFQVWLKGGFLV | inactive |
| FMSSSPDSYCEKGKRQ | inactive |
| RALMGLVIKPKMSNTNLLDY | inactive |
| IRKSFVEKMLPLPFSLAAIG | 0.234 ± 0.44 |
| VNVRHTGSLTFFF | 1.01 ± 0.12 |
| VALAVMQKLNMRYIYNPCFV | inactive |
| KKMHNVALGFMFIVVG | inactive |
| CVHNLN | inactive |
| LFTKRSYCCSCVVSGSEWAY | 0.852 ± 0.21 |
| WIYGYAVSLRSLYGLNLSM | inactive |
| IAQIFLACRTVT | inactive |
| MIFLRIFYGLLGNSQFIIFL | 0.331 ± 0.56 |

| Substance | amyloid nucleation score |
| --- | --- |
| NFTRC | inactive |
| NKLCYSSDLYWRVTDKDEHR | inactive |
| RNTLARKFVIRFTIFNAWSN | 1.28 ± 0.11 |
| TLIRRVYVRRFYTGIEVGST | inactive |
| WNVWVLPIFIAFGLEPPRLE | 2.62 ± 0.059 |
| CVWLVVTSDFLFRQLL | 1.73 ± 0.11 |
| LFGARDVFFER | inactive |
| NLHTTEIKFSPLLWKISSTW | 0.313 ± 0.34 |
| NNYVMA | -0.231 ± 1.1 |
| SRFYSDTQPTCGWKRVESRG | -0.897 ± 2.5 |
| KWKFCSGYAELMLP | inactive |
| YRMNDGNDGICMVWLRNSAY | inactive |
| IMMMNLKM | 1.92 ± 0.079 |
| LALFDRGTCRQSSVYSGEDS | inactive |
| VAIGYIASVLK | inactive |
| HGWSS | inactive |
| RFHDNFAAK | inactive |
| LCRSSMGPFGNLWEKQLYIW | inactive |
| LNRVINYLIKLYFAGWVSHD | inactive |
| VPGQYWFIDGMTFGNDDTRS | inactive |
| NNLEFQFNWRLEVGFC | inactive |
| LCSVDVVLPVKYCVLPDH | 1.76 ± 0.076 |
| CFIWMSYGVPLNCNCLPQRP | inactive |

| Substance | amyloid nucleation score |
| --- | --- |
| VSMIKRLGHCGVLGGKTYRV | -0.671 ± 0.8 |
| RVKSVTVMMIFDNYSCMVCN | 1.93 ± 0.069 |
| MYRCNVGLLGVFPRCNPYDA | inactive |
| SVTFTSSVLYEGSKVSAFLL | inactive |
| FSGFTVR | inactive |
| VNIIF | inactive |
| TTCAVCRCIRGAMFNGSVSK | inactive |
| EGETTEVLTLVVWRKVINNS | inactive |
| HKFDNKIRPTWYVVLPIFNA | inactive |
| LLSREERTAVLLCTETQ | inactive |
| KRNFGWSAIRVQFIDFCLKG | inactive |
| NYHRDSDVLTIFVISCPFLR | inactive |
| TRPGLKWWVLRRMRHFGRRV | inactive |
| HHLGRSLGIVTSLQLGIILL | inactive |
| HIFHQIKANDHAIFLGNVSG | inactive |
| IQSKRRPSDCLPKS | inactive |
| SLYMTVGESVPSMSASMYFG | inactive |
| IVFLLLVRLLVFIP | inactive |
| IVSNTTPTQPTSVLVNYSVR | inactive |
| GDCVLDPDLRSWDEW | inactive |
| SWTFQHIWVRHSRSPCKAGR | inactive |
| IWISLGAMIMFMVN | inactive |
| VFLSCSCRWMVYGYNLTADC | inactive |

| Substance | amyloid nucleation score |
| --- | --- |
| IEQRLRLKSLSYFFINDVKI | inactive |
| WFCLRTTVTPLDGFVLWYWE | inactive |
| ISKSDLSLFN | inactive |
| AWWMLN | inactive |
| YCVMNSAINSLRSMAIWSFA | inactive |
| YFKNGNALCKAFKKRISRKD | inactive |
| NRCQKSVVYLSLVYYHGIGM | inactive |
| QSLHSYNRSESCSLGSSFWI | inactive |
| LYEAVDRGLSRR | inactive |
| LIISCMQFLVYKKCGFSMRH | inactive |
| ELRLMGFRGALDACLSLHPI | inactive |
| RVCSW | inactive |
| PDLDYFMIHA | inactive |
| YAFISWNS | inactive |
| HVVHYDMFHDGLSLWDQEAR | inactive |
| DWIKFHVTDW | inactive |
| YFGLALKSFGTLM | 0.876 ± 0.19 |
| TRNPDKLCANVLDNRH | inactive |
| GLVNCEHVWRIETKLVTPHL | -0.764 ± 0.76 |
| EVLYYRFLF | inactive |
| LFCIY | inactive |
| SGIYTMVWAFGFDVLYLLVS | inactive |
| CIRLRKANINRKDQKRGCMV | inactive |

| Substance | amyloid nucleation score |
| --- | --- |
| FFSSFPFKIIEMLSFEGSFR | inactive |
| TSHPYNHVESSG | 0.972 ± 0.095 |
| HLLTLTI | 0.501 ± 0.26 |
| YGMGSGTTMVCPKVAWG | inactive |
| MCTNMSRNQFITDIVLCDRS | inactive |
| RLGFRCSVLSDMLYVGVLGS | inactive |
| ASWFYNIKKLNCCHFVQFAD | 1.64 ± 0.09 |
| SFSRPCWLYWAGFLSVVYRC | inactive |
| CLILSWYKYCSRGEMMHMKH | inactive |
| FFKSLRV | inactive |
| CINIGVMDEWGVAVTLLVKN | inactive |
| FESLHSCV | inactive |
| CFLSQLNTSDACVCLRFGWG | inactive |
| SCHLEVLFISLFD | inactive |
| DVEFGLSKLCYHRVCYVTEM | -0.113 ± 0.66 |
| GFSNITMCLA | inactive |
| SQLVVLCCCRSPSFYCGVL | 1.32 ± 0.17 |
| GVDFEDQPSSQDFLYSARYL | inactive |
| SKWYLFITGFRYMWFVRFNV | inactive |
| EMYGWINMIQWNLLCVSEII | inactive |
| IEFRLWYG | inactive |
| PPFYMCFYLFVGLRNSMGWL | inactive |
| YCIVLKYNQLLSTMSANNMY | 1.19 ± 0.1 |

| Substance | amyloid nucleation score |
| --- | --- |
| INAGF | inactive |
| AVECSDRTTARWLNVTYAYF | inactive |
| FLPPTVINVVHAYRRFSSDR | 1.71 ± 0.098 |
| WDIWCRS | inactive |
| VYRRGDIATLLNDI | inactive |
| SEPIWYFRGFFCGLGLIWGW | -0.389 ± 0.98 |
| DWCVSSEMSVTNALQATKFA | inactive |
| YFCSCFRFSLNN | 2.8 ± 0.062 |
| KIKSLELMYDISERNF | inactive |
| LGSTKSPLSCVY | inactive |
| QSLRRQYLNYIRSIFESMEN | inactive |
| PPVLVNGLTLKWEGVYSVNY | 0.802 ± 0.21 |
| APRFRFQTVHRSFVRSRKLR | inactive |
| FFFLWGAP | inactive |
| RDVTC | inactive |
| RPMKLRCASGWNVDTQFFDT | inactive |
| SKKPVEMTRNI | inactive |
| LVAFATWYNGWWVPRENEFR | 0.033 ± 0.47 |
| CIKIIIFNVERLVALIIVSL | inactive |
| VDQHGFATKGPVLSKVIGHS | inactive |
| IDCGGFDDIRVVSGDDEKMW | inactive |
| CPTASHNIALLTYDQTRTQY | inactive |
| YCTYN | inactive |
